Where “and” joins values, the source holds several entries; their conditions need not be identical. Identical values can stand only once. Entries after “also recorded” stand apart in the source; their conditions may differ.
B1: murine 16B5: murine anti-clusterin 16B5 antibody used in mouse studies; VL SEQ ID NO:7, VH SEQ ID NO:8 (antibody, V domains shown)
VH: EVQLQQSGAELVKPGASVRLSCTTSGFNIKDIYMHWVKQRPEQGLEWIGRIDPAYGNTKYDPKFQGKATITADTSSNTAYLQLSSLTSEDTAVYYCARRYDTAMDYWGQGTSVTVSS
VL: DIVMSQSPSSLAVSAGEKVTMSCKSSQSLLNSRTRKNYLAWYQQKPGQSPKLLIYWASTRESGVPDRFTGSGSGTDFTLTISSVQAEDLAVYYCKQSYNLWTFGGGTKLEFK
modifications: Murine 16B5 VH; Murine 16B5 VL

Assays:
4T1 primary tumors = test: 4T1 model: CD45+ immune cells in primary tumors; assay type: in vivo, Balb/c mice; details: Balb/c, 5-week regimens (Groups 2, 4, 5), primary tumors excised at Day 16
Description: (§1) Five groups, each consisting of 10 female Balb/c mice were assigned to this study (see Table 5 below). All animals received subcutaneous implantation of 4T1 mouse mammary carcinoma cells in the 4th inguinal mammary gland. Treatment was initiated on the day of implantation (defined as Day 1). Animals from Group 1 (Gr. 1) received IP treatment of saline vehicle control twice a week for the duration of the study. Animals from Group 2 (Gr. 2) received 10 mg/kg of docetaxel weekly for five weeks by IP administration. Animals from Group 3 (Gr. 3) received 10 mg/kg of docetaxel weekly for two weeks and 10 mg/kg of AB-16B5, twice weekly for five weeks. Animals from Group 4 (Gr. 4) received 10 mg/kg of docetaxel weekly and 5 mg/kg of 16B5 twice weekly each over the course of a five weeks treatment. Animals from Group 5 (Gr. 5) received AB-16B5 twice weekly for five weeks. On Day 36, the primary tumors were excised and on Day 37, the animals were sacrificed and the number of grossly visible metastatic nodules on the surface of the lungs was counted.
The primary tumors excised at Day 16 post implantation, were processed with collagenase and hyaluronidase and immune cells were purified by positive selection using magnetic latex beads coated with an anti-CD45 antibody. […]

[1] = system: 4T1 mouse mammary carcinoma cells; test: 4T1 model: count of metastatic lung nodules; assay type: in vivo, Balb/c mice; details: Balb/c, treatment for 5 weeks (docetaxel 10 mg/kg IP 1X/week; AB-16B5 10 mg/kg IP 2X/week), vs saline control
Description: as §1

4T1 tumor cells = test: INFγ secretion of tumor infiltrating lymphocyte cultures co-cultured with 4T1 cells (ELISA); assay type: cell-based, Balb/c mice; details: 100,000 lymphocytes from lung metastatic nodules with 100,000 4T1 cells overnight, individual animals, AB-16B5 10 mg/kg IP twice weekly ± docetaxel 10 mg/kg IP weekly
Description: Balb/c mice were orthotopically implanted with 5×10^5 4T1 cells in the 4th mammary fat pad. Animals received intraperitoneal (IP) AB-16B5 (murine 16B5) 10 mg/kg twice weekly in combination with IP docetaxel 10 mg/kg weekly (Group 15: animals 1501, 1502 and 1503) or IP AB-16B5 10 mg/kg twice weekly (Group 25: […]). The primary tumor was surgically removed at Day 16 post-implantation. The animals were sacrificed at Day 36 and the lungs were excised and each visible lung metastasis was carefully dissected. Each visible metastatic nodule, if any, was excised and processed for a rapid expansion of tumor infiltrating lymphocyte protocol. The metastatic nodules were sectioned into small pieces of 2-3 mm edge that were individually grown in 24 well plates containing culture medium supplemented with FBS, IL2, IL7, ITS (1,000 U/mL IL2, 2.0 ng/mL IL7 and 1× insulin-transferrin-selenium cocktail (Gibco 41400-045)).
After three weeks in culture, 100,000 cells were taken from each of the lymphocyte cultures (six cultures corresponding to three animals from Group 15 and three animals from Group 25) and placed in culture with 100,000 4T1 tumor cells. After overnight co-culture, the supernatant was recovered for INFγ quantification by ELISA.

4T1 lung metastases = test: 4T1 model: immunohistochemistry of lung metastases; assay type: in vivo; details: Balb/c mice, orthotopic 4T1; 10 mg/kg IP thrice a week; Day 36
Source text: Balb/c mice were orthotopically implanted with 5×10^5 4T1 cells in the 4th mammary fat pad. Animals received IP saline treatment thrice weekly. The primary tumor was surgically removed at Day 16 post-implantation. The animals were sacrificed at Day 36 and the lungs were excised. Tissues were fixed in paraformaldehyde and processed for paraffin embedding. Tissue sections were probed with anti-mouse CD3, anti-mouse CD8 and anti-mouse B220 antibodies. […] Results presented in FIG. 1 indicate that the 4T1 lung metastases create an immune cold microenvironment which prevents the infiltration of B and T lymphocytes in tumors. Delineated regions indicate that CD3 and CD8 T lymphocytes are restricted in the tumor margin as a consequence of EMT.
Animals bearing 4T1 tumors were treated with the AB-16B5 antibody (murine 16B5) thrice a week IP at 10 mg/kg. The primary tumor was surgically removed at Day 16 post-implantation. The animals were sacrificed at Day 36 and the lungs were excised. Tissues were fixed in paraformaldehyde and processed for paraffin embedding. Tissue sections were probed with anti-mouse CD3, anti-mouse CD8 and anti-mouse B220 antibodies.

Molecule | CD45+ immune cells in primary tumors (4T1 primary tumors) | metastatic lung nodules / therapeutic effect on lung metastases [1] | INFγ (4T1 tumor cells) | infiltration of lung metastases with T cells (4T1 lung metastases) | lung metastases (number and size) (4T1 lung metastases) | plasmocytes penetration in tumors (4T1 lung metastases)
CC(=O)O[C@@]12CO[C@@H]1C[C@H](O)[C@@]1(C)C(=O)[C@H](O)C3=C(C)[C@@H](OC(=O)[C@H](O)[C@@H](NC(=O)OC(C)(C)C)c4ccccc4)C[C@@](O)([C@@H](OC(=O)c4ccccc4)[C@H]21)C3(C)C [docetaxel] | very few CD45+ | as many metastatic lung nodules as the saline control group; also recorded: relatively ineffective |  |  |  | 
B1 | more immune cells | less metastatic lung nodules | 8538.8 pg/mL and 3770.0 pg/mL and 4538.8 pg/mL | densely infiltrated with CD3 and CD8 T cells | fewer and much smaller lung metastases | evidence of plasmocytes penetration

Source: US20240317884A1, “METHOD FOR ALLOWING IMMUNE CELLS INFILTRATION IN TUMORS” (Alethia Biotherapeutics Inc., priority 2021, published 2024)
